The source of these data is the RNAGym collection of RNA variant scans (doi:10.7554/elife.80360).

B1: CPEB3 Ribozyme (parent)
chain: GGGGGCCACAGCAGAAGCGUUCACGUCGCGGCCCCUGUCAGAUUCUGGUGAAUCUGCGAAUUCUGCUGU

Variants of B1 are the subject of this data set. The data set is described as follows: self-cleavage, relative activity (ratio to wild type); higher = more cleavage; co-transcriptional.
Consider GGGGGUCACAGCAGAAGCGUUCACGUCGCGGCCCCUGUCAGAUUCUGGUGAAUCUGCGAAUUCAGCUGU, for which the self-cleavage was 0.853. The figure for GGGGGUCACAGCAGAAGCGUUCACGUCGCGGCCCCUGUCAGAUUCUGGUGAAUCUGCGAAUUCCGCUGU is 0.829; for GGGGGUCACAGCAGAAGCGUUCACGUCGCGGCCCCUGUCAGAUUCUGGUGAAUCUGCGAAUUCGGCUGU it is 0.92; for GGGGGUCACAGCAGAAGCGUUCACGUCGCGGCCCCUGUCAGAAUCUGGUGAAUCUGCGAAUUCUGCUGU it is 0.917. As to GGGGGUCACAGCAGAAGCGUUCACGUCGCGGCCCCUGUCAGAUUCUUGUGAAUCUGCGAAUUCUGCUGU, the self-cleavage came to 1.02. Consider GGGGGUCACAGCAGAAGCGUUCACGUCGCGGCCCCUGUCAGAUUCUCGUGAAUCUGCGAAUUCUGCUGU, for which the self-cleavage was determined as 0.996. In the case of GGGGGUCACAGCAGAAGCGUUCACGUCGCGGCCCCUGUCAGAUUCUAGUGAAUCUGCGAAUUCUGCUGU, the self-cleavage worked out at 1.01. Consider GGGGGUCACAGCAGAAGCGGUCACGUCGCGGCCCCUGUCAGAUUCUGGUGAAUCUGCGAAUUCUGCUGU, for which the self-cleavage came to 0.174. In the case of GGGGGUCACAGCAGAAGCGUUCACGUCGCGGCCCCUGUCAGAUUCUGCUGAAUCUGCGAAUUCUGCUGU, the self-cleavage is 0.995.

Regarding GGGGGUCACAGCAGAAGCGUUCACGUCGCGGCCCCUGUCAGAUUCUGAUGAAUCUGCGAAUUCUGCUGU, the self-cleavage was determined as 1.03. The figure for GGGGGUCACAGCAGAAGCGUUCACGACGCGGCCCCUGUCAGAUUCUGGUGAAUCUGCGAAUUCUGCUGU is 0.833; for GGGGGUCACAGCAGAAGCGUUCACGCCGCGGCCCCUGUCAGAUUCUGGUGAAUCUGCGAAUUCUGCUGU it is 0.893. As for GGGGGCAACAGCAGAAGCGUUCACGUCGCGGCCCCUGUCUGAUUCUGGUGAAUCUGCGAAUUCUGCUGU, the self-cleavage came out at 0.147.

Take GGGGGCAACAGCAGAAGCGUUCACGUCGCGGCCCCUGUCCGAUUCUGGUGAAUCUGCGAAUUCUGCUGU: the self-cleavage was 0.15.

Turning to GGGGGCAACAGCAGAAGCGUUCACGUCGCGGCCCCUGUCAGAUUCUGGUGAUUCUGCGAAUUCUGCUGU, the self-cleavage is 0.466. With GGGGGCAACAGCAGAAGCGUUCACGUCGCGGCCCCUGUCAGAUUCUGGUGACUCUGCGAAUUCUGCUGU, the self-cleavage came to 0.412. Take GGGGGUCACAGCAGAAGCGUUCACGUCGCGGCCCCUGUCAGAUUCUGGUGAAUCAGCGAAUUCUGCUGU: the self-cleavage was found to be 0.989.

As to GGGGGUCACAGCAGAAGCGUUCACGUCGCGGCCCCUGUCAGAUUCUGGUGAAUCCGCGAAUUCUGCUGU, the self-cleavage was determined as 0.775. GGGGGUCACAGCAGAAGCGUUCACGUCGCGGCCCCUGUCAGAUUCUGGUGAAUCGGCGAAUUCUGCUGU: the self-cleavage stood at 0.888. In the case of GGGGGUCACAGCAGAAGCGUUCACGUCGCGGCCCCUGUCAGAUUCUGGUAAAUCUGCGAAUUCUGCUGU, the self-cleavage turned out to be 0.982. GGGGGUCACAGCAGAAGCGUUCACGUCGCGUCCCCUGUCAGAUUCUGGUGAAUCUGCGAAUUCUGCUGU: the self-cleavage came out at 0.914.

As for GGGGGCAACAGCAGAUGCGUUCACGUCGCGGCCCCUGUCAGAUUCUGGUGAAUCUGCGAAUUCUGCUGU, the self-cleavage was 0.222. Turning to GGGGGUCACAGCAGAAGCGUUCACGUCGCGGCCCCUGUCAGAUUCUGGUGAAUCUGCGAAUUCUGCUAU, the self-cleavage came out at 1.03.

Consider GGGGGUCACAGCAGAAGCGUUCACGUCGCGGCCCCUGUCAGAUUCUGGUGAAUCUGCGAAUUCUGCUCU, for which the self-cleavage was found to be 0.999. With GGGGGUCACAGCAGAAGCGUUCACGUCGCGGCCCCUGUCAGAUUCUGGUGAAUCUGCGAAUUCUGCUUU, the self-cleavage was 1.02. To GGGGGUCACAGCAGAAGCGUUCACGUCGCGGCCCCUGUCAGAUUCUGGUGAAGCUGCGAAUUCUGCUGU belongs 0.719. GGGGGUCACAGCAGAAGCGUUCACGUCGCGGCCCCUGUCAGAUUCUGGUGAAACUGCGAAUUCUGCUGU: the self-cleavage was found to be 0.977. Take GGGGGUCACAGCAGAAGCGUUCACGUCGCGGCCCCUGUCAGAUUCUGGUGAACCUGCGAAUUCUGCUGU: the self-cleavage came out at 0.914. On to GGGGGUCACAGCAGAAGCGUUCACGUCGCGGCCCCUGUCAGAUUCUGGUGAAUCUGCGAAUUCUGCGGU, for which the self-cleavage was determined as 0.995. As for GGGGGUCACAGCAGAAGCGUUCACGUCGCGGCCCCUGUCAGAUUCUGGUGAAUCUGCGAAUGCUGCUGU, the self-cleavage came out at 0.783. Regarding GGGGGUCACAGCAGAAGCGUUCACGUCGCGGCCCCUGUCAGAUUCUGGUGAAUCUGCGAAUACUGCUGU, the self-cleavage was found to be 0.873. Regarding GGGGGUCACAGCAGAAGCGUUCACGUCGCGGCCCCUGUCAGAUUCUGGUGAAUCUGCCAAUUCUGCUGU, the self-cleavage amounted to 0.909. The figure for GGGGGUCACAGCAGAAGCGUUCACGUCGCGGCCCCUGUCAGAUUCUGGUGAAUCUGCAAAUUCUGCUGU is 0.981; for GGGGGUCACAGCAGAAGCGUUCACGUCGCGGCCCCUGUCACAUUCUGGUGAAUCUGCGAAUUCUGCUGU it is 0.708.

GGGGGUCACAGCAGAAGCGUUCACGUCGCGGCCCCUGUCAAAUUCUGGUGAAUCUGCGAAUUCUGCUGU: the self-cleavage amounted to 0.815. Turning to GGGGGCAACGGCAGAAGCGUUCACGUCGCGGCCCCUGUCAGAUUCUGGUGAAUCUGCGAAUUCUGCUGU, the self-cleavage was 0.865.

As for GGGGGCAACCGCAGAAGCGUUCACGUCGCGGCCCCUGUCAGAUUCUGGUGAAUCUGCGAAUUCUGCUGU, the self-cleavage came out at 0.76. To GGGGGUCACAGCAGAAGCGUUCACGUCGCGGCCCCUGUCAGAUUCUGGCGAAUCUGCGAAUUCUGCUGU belongs 1.02. With GGGGGCAACAGCAGAAGCGUUCUCGUCGCGGCCCCUGUCAGAUUCUGGUGAAUCUGCGAAUUCUGCUGU, the self-cleavage amounted to 0.824.

GGGGGCAACAGCAGAAGCGUUCGCGUCGCGGCCCCUGUCAGAUUCUGGUGAAUCUGCGAAUUCUGCUGU: the self-cleavage was found to be 0.421. Take GGGGGUCACAGCAGAAGCGUUCACGUCGCGGCCCCUGUCAGAUACUGGUGAAUCUGCGAAUUCUGCUGU: the self-cleavage worked out at 0.887.

For GGGGGUCACAGCAGAAGCGUUCACGUCGCGGCCCCUGUCAGAUCCUGGUGAAUCUGCGAAUUCUGCUGU, the self-cleavage turned out to be 0.933. With GGGGGCAACAGCUGAAGCGUUCACGUCGCGGCCCCUGUCAGAUUCUGGUGAAUCUGCGAAUUCUGCUGU, the self-cleavage stood at 0.274. As to GGGGGCAACAGCGGAAGCGUUCACGUCGCGGCCCCUGUCAGAUUCUGGUGAAUCUGCGAAUUCUGCUGU, the self-cleavage was 0.598. Consider GGGGGUCACAGCAGAAGCGUUCACGUCGCGGCCCCUAUCAGAUUCUGGUGAAUCUGCGAAUUCUGCUGU, for which the self-cleavage turned out to be 0.22. The figure for GGGGGUCACAGCAGAAGCGUUCACGUCGCGGCCCCUUUCAGAUUCUGGUGAAUCUGCGAAUUCUGCUGU is 0.169. GGGGGUCACAGCAGAAGCGUUCACGUCGCGGCCCCUCUCAGAUUCUGGUGAAUCUGCGAAUUCUGCUGU: the self-cleavage is 0.154. In the case of GGGGGCAAGAGCAGAAGCGUUCACGUCGCGGCCCCUGUCAGAUUCUGGUGAAUCUGCGAAUUCUGCUGU, the self-cleavage came out at 0.639.

GGGGGCAAUAGCAGAAGCGUUCACGUCGCGGCCCCUGUCAGAUUCUGGUGAAUCUGCGAAUUCUGCUGU: the self-cleavage is 0.934.

Take GGGGGUCACAGCAGAAGCGUUCACGUCGCGGCCCCUGUCAGAUUCUGGUGAAUCUGCGAAAUCUGCUGU: the self-cleavage was found to be 0.736.

Take GGGGGUCACAGCAGAAGCGUUCACGUCGCGGCCCCUGUCAGAUUCUGGUGAAUCUGCGAACUCUGCUGU: the self-cleavage was 0.647.

Regarding GGGGGUCACAGCAGAAGCGUUCACGUCGCGGCCCCUGUCAGAUUCUGGUGAAUCUGCGAAGUCUGCUGU, the self-cleavage turned out to be 0.809.

GGGGGUCACAGCAGAAGCGUUCACGUCGCGGCCCCUGUCAGAUUCUGGUGAAUCUGCGAAUUCUUCUGU: the self-cleavage is 0.719. As to GGGGGUCACAGCAGAAGCGUUCACGUCGCGGCCCCUGUCAGAUUCUGGUGAAUCUGCGAAUUCUCCUGU, the self-cleavage was found to be 0.636. The figure for GGGGGUCACAGCAGAAGCGUUCACGUCGCGGCCCCUGUCAGAUUCUGGUGAAUCUUCGAAUUCUGCUGU is 0.968.

For the variant GGGGGUCACAGCAGAAGCGUUCACGUCGCGGCCCCUGUCAGAUUCUGGUGAAUCUCCGAAUUCUGCUGU, the self-cleavage came out at 0.772. As to GGGGGCAACAGCAGAAGCGUUCACGUCGCGGCCCCUGUCAGAUUCUGGUGCAUCUGCGAAUUCUGCUGU, the self-cleavage was found to be 0.477.

On to GGGGGCAACAGCAGAAGCGUUCACGUCGCGGCCCCUGUCAGAUUCUGGUGGAUCUGCGAAUUCUGCUGU, for which the self-cleavage was found to be 0.514. Consider GGGGGUCACAGCAGAAGCGUUCACGUCGCGGCCCCUGUCAGAUUCCGGUGAAUCUGCGAAUUCUGCUGU, for which the self-cleavage worked out at 1.

As to GGGGGUCACAGCAGAAGCGUUCACGUCGCGGCCCCUGUCAGAUUCAGGUGAAUCUGCGAAUUCUGCUGU, the self-cleavage was 0.944.

As to GGGGGUCACAGCAGAAGCGUUCACGUCGCGGCCCCUGUCAGAUUCGGGUGAAUCUGCGAAUUCUGCUGU, the self-cleavage is 0.987. On to GGGGGCAGCAGCAGAAGCGUUCACGUCGCGGCCCCUGUCAGAUUCUGGUGAAUCUGCGAAUUCUGCUGU, for which the self-cleavage is 0.8. To GGGGGCAUCAGCAGAAGCGUUCACGUCGCGGCCCCUGUCAGAUUCUGGUGAAUCUGCGAAUUCUGCUGU belongs 0.769; to GGGGGCAACAGCAGAAGCGUUCACGUCGCGGCCCCUGUCAGAUUCUGGUGAAUCUGCGAUUUCUGCUGU, 0.225. For the variant GGGGGCAACAGCAGAAGCGUUCACGUCGCGGCCCCUGUCAGAUUCUGGUGAAUCUGCGACUUCUGCUGU, the self-cleavage came to 0.152. On to GGGGGCAACAGCAGAAGCGUUCACGUCGCGGCCCCUGUCAGAUUCUGGUGAAUCUGCGAAUUCUGCUGU, for which the self-cleavage was found to be 0.643. With GGGGGCAACAGCAGCAGCGUUCACGUCGCGGCCCCUGUCAGAUUCUGGUGAAUCUGCGAAUUCUGCUGU, the self-cleavage is 0.162. For the variant GGGGGCAACAGCAGGAGCGUUCACGUCGCGGCCCCUGUCAGAUUCUGGUGAAUCUGCGAAUUCUGCUGU, the self-cleavage amounted to 0.457. GGGGGUCACAGCAGAAGCGUCCACGUCGCGGCCCCUGUCAGAUUCUGGUGAAUCUGCGAAUUCUGCUGU: the self-cleavage was found to be 0.827. For the variant GGGGGUCACAGCAGAAGCGUGCACGUCGCGGCCCCUGUCAGAUUCUGGUGAAUCUGCGAAUUCUGCUGU, the self-cleavage turned out to be 0.329. Regarding GGGGGUCACAGCAGAAGCGUUCACGUCGCGGCCCCUGUCAGAUUCUGGUGAAUCUGCGAAUUCUGCUGA, the self-cleavage stood at 1.05. Regarding GGGGGUCACAGCAGAAGCGUUCACGUCGCGGCCCCUGUCAGAUUCUGGUGAAUCUGCGAAUUCUGCUGG, the self-cleavage was found to be 1.04. Consider GGGGGCAACAGCAGAAGCGUUCACGUCGCGGCCCCUGUCAGAUUCUGGUGAAUCUGCGGAUUCUGCUGU, for which the self-cleavage turned out to be 0.469. In the case of GGGGGCAACAGCAGAAGCGUUCACGUCGCGGCCCCUGUCAGAUUCUGGUGAAUCUGCGUAUUCUGCUGU, the self-cleavage was 0.157.

As for GGGGGUCACAGCAGAAGCGUUCACGUCGCGGCCCCGGUCAGAUUCUGGUGAAUCUGCGAAUUCUGCUGU, the self-cleavage came to 0.127. As to GGGGGUCACAGCAGAAGCGUUCACGUCGCGGCCCCAGUCAGAUUCUGGUGAAUCUGCGAAUUCUGCUGU, the self-cleavage was found to be 0.221. Take GGGGGUCACAGCAGAAGCGUUCACGUCGCGGCCCCUGCCAGAUUCUGGUGAAUCUGCGAAUUCUGCUGU: the self-cleavage worked out at 0.929. The figure for GGGGGUCACAGCAGAAGCGUUCACGUCGCGGCCCCUGGCAGAUUCUGGUGAAUCUGCGAAUUCUGCUGU is 0.12.
